From patent US20030158083A1, “Method of effecting angiogenesis by modulating the function of a novel endothelia phosphatase” (The Procter & Gamble Company, priority 2002, published 2003)

What was measured:
[1] = Phosphatase activity with fluorogenic substrate DiFMUP; assay type: biochemical
Protocol: Purified, recombinant KAPh phosphatase domain (amino acids 83-464 SEQ ID NO 4) (100 μg/mL) and full-length PTEN (amino acids 1-403) (100 μg/mL) were each mixed with a fluorogenic phosphatase substrate 6,8-difluoro-4-methylumbelliferyl phosphate (DiFMUP) (Molecular Probes, Eugene, Oreg.) at a final concentration of a 100 μM in assay buffer (10 mM sodium acetate, pH 6.0, 150 mM NaCl, 5 mM DTT). Following incubation at ambient temperature for 15 or 60 min., the fluorescence intensity of the 6,8-difluoro-4-methylumbelliferone (DiFMU) product was measured in triplicate and used as an assessment of phosphatase activity. A Victor 5 microplate reader from Wallac (Turku, Finland) was used to read the fluorescence intensity from 384-well microplates (Corning Inc., Corning, N.Y.).

[2] = Peptide phosphatase assay (BIOMOL green); assay type: biochemical; settings: any peptide substrates examined; data not shown
[3] = biological target: T1, 6xHis-tagged KAPh full-length protein (expressed in HEK 293 cells from pcDNA4/HisMax) (Homo sapiens, UniProt Q63HR2 26-1409, limits assumed); experiment: GST pull-down from HEK 293 lysate, anti-HisG blot
T1 construct: Used as HEK 293 cell lysate; also called full-length KAPh; hexahistidine-tagged full-length KAPh
T1 sequence: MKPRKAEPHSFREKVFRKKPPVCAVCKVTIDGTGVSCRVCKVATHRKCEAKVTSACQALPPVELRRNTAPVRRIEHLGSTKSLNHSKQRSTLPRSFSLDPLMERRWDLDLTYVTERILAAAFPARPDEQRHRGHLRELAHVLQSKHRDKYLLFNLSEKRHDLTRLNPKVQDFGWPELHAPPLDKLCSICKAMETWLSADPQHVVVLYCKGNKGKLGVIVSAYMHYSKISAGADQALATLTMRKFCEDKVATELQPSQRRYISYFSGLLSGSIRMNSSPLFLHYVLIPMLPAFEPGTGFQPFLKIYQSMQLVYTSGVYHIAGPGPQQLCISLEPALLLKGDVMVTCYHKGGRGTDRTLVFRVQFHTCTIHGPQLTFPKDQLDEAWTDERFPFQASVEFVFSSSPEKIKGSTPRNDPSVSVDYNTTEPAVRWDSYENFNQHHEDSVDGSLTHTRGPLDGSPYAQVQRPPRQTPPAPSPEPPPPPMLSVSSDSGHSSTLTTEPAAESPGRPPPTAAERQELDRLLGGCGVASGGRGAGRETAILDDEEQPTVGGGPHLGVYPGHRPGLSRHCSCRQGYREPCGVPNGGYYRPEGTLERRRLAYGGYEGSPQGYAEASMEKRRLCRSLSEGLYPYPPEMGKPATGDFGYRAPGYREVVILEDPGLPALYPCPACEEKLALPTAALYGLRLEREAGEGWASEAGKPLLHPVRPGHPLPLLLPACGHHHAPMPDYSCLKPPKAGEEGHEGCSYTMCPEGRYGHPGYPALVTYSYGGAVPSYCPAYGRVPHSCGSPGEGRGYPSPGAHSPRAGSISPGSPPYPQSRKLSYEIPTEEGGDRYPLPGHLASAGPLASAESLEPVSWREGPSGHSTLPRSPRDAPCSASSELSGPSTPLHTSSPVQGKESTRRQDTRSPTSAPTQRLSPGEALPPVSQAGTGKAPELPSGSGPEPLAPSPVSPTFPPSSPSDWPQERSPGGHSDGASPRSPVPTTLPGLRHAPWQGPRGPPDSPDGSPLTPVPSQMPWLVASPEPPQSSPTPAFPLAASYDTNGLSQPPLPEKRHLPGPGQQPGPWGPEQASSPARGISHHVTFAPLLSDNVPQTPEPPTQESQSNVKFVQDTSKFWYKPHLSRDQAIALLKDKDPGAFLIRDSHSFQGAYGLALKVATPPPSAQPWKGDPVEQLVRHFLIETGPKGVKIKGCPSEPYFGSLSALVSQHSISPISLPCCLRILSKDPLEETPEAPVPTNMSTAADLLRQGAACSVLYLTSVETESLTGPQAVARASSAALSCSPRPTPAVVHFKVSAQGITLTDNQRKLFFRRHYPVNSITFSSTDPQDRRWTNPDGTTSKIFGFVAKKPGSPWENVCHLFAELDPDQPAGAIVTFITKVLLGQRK

[4] = biological target: T2, GST (baculovirus-expressed glutathione S-transferase alone) (UniProt P08515 1-218 = GST); experiment: GST pull-down from HEK 293 lysate, anti-HisG blot
T2 construct: Control; also called GST alone
T2 sequence (P08515 whole entry): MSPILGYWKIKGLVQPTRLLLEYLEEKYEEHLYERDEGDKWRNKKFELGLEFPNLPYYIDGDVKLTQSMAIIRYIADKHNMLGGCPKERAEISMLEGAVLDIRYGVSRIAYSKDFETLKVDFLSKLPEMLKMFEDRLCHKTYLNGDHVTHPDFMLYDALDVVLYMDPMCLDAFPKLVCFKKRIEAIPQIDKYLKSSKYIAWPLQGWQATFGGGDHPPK

With “PTEN: full-length PTEN (amino acids 1-403), tumor suppressor with phosphatase activity, used as comparator [reference compound]” the “fluorescent product (DiFMU) generated, fold over buffer control” value ([1]; 100 μg/mL protein, 100 μM DiFMUP, pH 6.0, ambient temperature, 60 min incubation) was 6 fold and the “phosphatase activity using peptide substrates” value [2] was “unable to detect significant, reproducible phosphatase activity”.

B1: GST Tie1 wild-type (GST fusion of the intracellular domain of human Tie1) (receptor, UniProt P35590 785-1138, looked up)
chain: CIRRSCLHRRRTFTYQSGSGEETILQFSSGTLTLTRRPKLQPEPLSYPVLEWEDITFEDLIGEGNFGQVIRAMIKKDGLKMNAAIKMLKEYASENDHRDFAGELEVLCKLGHHPNIINLLGACKNRGYLYIAIEYAPYGNLLDFLRKSRVLETDPAFAREHGTASTLSSRQLLRFASDAANGMQYLSEKQFIHRDLAARNVLVGENLASKIADFGLSRGEEVYVKKTMGRLPVRWMAIESLNYSVYTTKSDVWSFGVLLWEIVSLGGTPYCGMTCAELYEKLPQGYRMEQPRNCDDEVYELMRQCWRDRPYERPPFAQIALQLGRMLEARKAYVNMSLFENFTYAGIDATAEEA
modifications: some degree of tyrosine phosphorylation after in vitro autophosphorylation; sites not listed
notes: domain: intracellular domain; also called Tie1 kinase; not shown: glutathione S-transferase (GST) encoded by the pAcGHLT baculovirus transfer vector (Pharmingen); in-frame fusion, linker
B1: no binding [3].

B2: 6xHis-tagged KAPh SH2 domain (expressed in HEK 293 cells from pcDNA4/HisMax) (other, not shown: small tags and cut ends)
chain: WYKPHLSRDQAIALLKDKDPGAFLIRDSHSFQGAYGLALKVATPPPSAQPWKGDPVEQLVRHFLIETGPKGVKIKGCPSEPYFGSLSALVSQHSISPISLPCCLRILS
notes: Used as HEK 293 cell lysate; also called hexahistidine-tagged KAPh SH2 domain; KAPh SH2 domain-containing protein fragment
B2: no binding [4].

B3: KAPh phosphatase domain: purified, recombinant KAPh phosphatase domain (amino acids 83-464 SEQ ID NO 4) (protein, listed as Homo sapiens)
chain: LNHSKQRSTLPRSFSLDPLMERRWDLDLTYVTERILAAAFPARPDEQRHRGHLRELAHVLQSKHRDKYLLFNLSEKRHDLTRLNPKVQDFGWPELHAPPLDKLCSICKAMETWLSADPQHVVVLYCKGNKGKLGVIVSAYMHYSKISAGADQALATLTMRKFCEDKVATELQPSQRRYISYFSGLLSGSIRMNSSPLFLHYVLIPMLPAFEPGTGFQPFLKIYQSMQLVYTSGVYHIAGPGPQQLCISLEPALLLKGDVMVTCYHKGGRGTDRTLVFRVQFHTCTIHGPQLTFPKDQLDEAWTDERFPFQASVEFVFSSSPEKIKGSTPRNDPSVSVDYNTTEPAVRWDSYENFNQHHEDSVDGSLTHTRGPLDGSPYAQVQ
With B3 the “phosphatase activity over time” value ([1]; 15 or 60 min incubation with DiFMUP) was “time-dependent increase in phosphatase activity”.

B4: GST Tie2 wild-type (GST fusion of the intracellular domain of human Tie2/TEK) (receptor, UniProt Q02763 770-1124, looked up)
chain: LQLKRANVQRRMAQAFQNVREEPAVQFNSGTLALNRKVKNNPDPTIYPVLDWNDIKFQDVIGEGNFGQVLKARIKKDGLRMDAAIKRMKEYASKDDHRDFAGELEVLCKLGHHPNIINLLGACEHRGYLYLAIEYAPHGNLLDFLRKSRVLETDPAFAIANSTASTLSSQQLLHFAADVARGMDYLSQKQFIHRDLAARNILVGENYVAKIADFGLSRGQEVYVKKTMGRLPVRWMAIESLNYSVYTTNSDVWSYGVLLWEIVSLGGTPYCGMTCAELYEKLPQGYRLEKPLNCDDEVYDLMRQCWREKPYERPSFAQILVSLNRMLEERKTYVNTTLYEKFTYAGIDCSAEEAA
modifications: some degree of tyrosine phosphorylation after in vitro autophosphorylation; sites not listed
notes: domain: intracellular domain; also called Tie2 kinase; not shown: glutathione S-transferase (GST) encoded by the pAcGHLT baculovirus transfer vector (Pharmingen); in-frame fusion, linker
B4: no binding [3].
